Assay results from IntAct's records for PubMed 15086341.

B1: Lysine-specific demethylase hairless (Mus musculus), Q61645 (parent)
chain: MESMPSFLKDTPAWEKTAPVNGIVGQEPGTSPQDGLRHGALCLGEPAPFWRGVLSTPDSWLPPGFLQGPKDTLSLVEGEGPRNGERKGSWLGGKEGLRWKEAMLAHPLAFCGPACPPRYGPLIPEHSGGHPKSDPVAFRPLHCPFLLETKILERAPFWVPTCLPPYLMSSLPPERPYDWPLAPNPWVYSGSQPKVPSAFGLGSKGFYHKDPNILRPAKEPLAESGMLGLAPGGHLQQACESEGPSLHQRDGETGAGRQQNLCPVFLGYPDTVPRAPWPSCPPGLVHSLGNIWAGPGSNSLGYQLGPPATPRCPSPGPPTPPGGCCSSHLPAREGDLGPCRKCQDSPEGGSSGPGESSEERNKADSRACPPSHHTKLKKTWLTRHSEQFECPGGCSGKEESPATGLRALKRAGSPEVQGASRGPAPKRPSHPFPGTGRQGARAWQETPETIIGSKAEAEQQEEQRGPRDGRIRLQESRLVDTSCQHHLAGVTQCQSCVQAAGEVGVLTGHSQKSRRSPLEEKQLEEEDSSATSEEGGGGPGPEASLNKGLAKHLLSGLGDRLCRLLRKEREALAWAQREGQGPAMTEDSPGIPHCCSRCHHGLFNTHWRCSHCSHRLCVACGRIAGAGKNREKTGSQEQHTDDCAQEAGHAACSLILTQFVSSQALAELSTVMHQVWAKFDIRGHCFCQVDARVWAPGDGGQQKEPTEKTPPTPQPSCNGDSNRTKDIKEETPDSTESPAEDGAGRSPLPCPSLCELLASTAVKLCLGHDRIHMAFAPVTPALPSDDRITNILDSIIAQVVERKIQEKALGPGLRAGSGLRKGLSLPLSPVRTRLSPPGALLWLQEPRPKHGFHLFQEHWRQGQPVLVSGIQKTLRLSLWGMEALGTLGGQVQTLTALGPPQPTNLDSTAFWEGFSHPETRPKLDEGSVLLLHRTLGDKDASRVQNLASSLPLPEYCAHQGKLNLASYLPLGLTLHPLEPQLWAAYGVNSHRGHLGTKNLCVEVSDLISILVHAEAQLPPWYRAQKDFLSGLDGEGLWSPGSQTSTVWHVFRAQDAQRIRRFLQMVCPAGAGTLEPGAPGSCYLDAGLRRRLREEWGVSCWTLLQAPGEAVLVPAGAPHQVQGLVSTISVTQHFLSPETSALSAQLYHQGASLPPDHRMLYAQMDRAVFQAVKAAVGALQEAK

Variants of: B1
Conditions: with Thrb

Row | Variant | effect of a mutation on the interaction
1 | D1005N | with no effect
